This note sets out measurements from paper PMC12296736.

Read-outs that look alike come from different tables or passages of the source.

The target of series [1] is T1, His-nOsBZR4 (His-OsBZR4) (Oryza sativa (rice), UniProt Q6EUF1 1-108).
T1 sequence: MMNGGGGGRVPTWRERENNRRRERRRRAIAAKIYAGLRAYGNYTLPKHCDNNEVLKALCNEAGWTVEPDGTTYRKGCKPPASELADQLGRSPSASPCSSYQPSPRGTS
The series can be described thus: EMSA.

The target in series [2] is T1, His-nOsBZR4 (His-OsBZR4). The series can be described thus: EMSA. The source holds these as a separate data set.

B1: YUC4-EMSA (dsDNA)
DNA 1: CGACCGAGCATATGCTCCGTGTTGGTGTATATATACTCGT
DNA 2: ACGAGTATATATACACCAACACGGAGCATATGCTCGGTCG
For the molecule B1, the binding result in series [1] is reported as “binds”.

B2: YUC11-EMSA (dsDNA)
DNA 1: TTCCGTATAAATAGCATGTGCTCTCCGA
DNA 2: TCGGAGAGCACATGCTATTTATACGGAA
Turning to B2, the binding result in series [2] is listed as “binds”.
